Seven sequences from article PMC10991935 can be followed below.

One data set has as its system PsPIWI-RE (Pseudomonas stutzeri DSM 4166). Nature of the data set: fluorescence polarization. The conditions noted are these: 5' phosphate; FP: 20 mM Tris-HCl pH 7.5, 250 mM NaCl, 5 mM MgCl2, 5 nM oligo, 37 C, 30 min; EMSA: 20 mM Tris-HCl pH 8.0, 150 mM NaCl, 2 mM DTT, 5 mM MgCl2, 1 uM oligo, 1-3 uM. On the technique in general: In fluorescence polarisation assays a small probe gives low polarisation when free and higher when bound to something large.
As for “UGAGGUAGUAGGUUGUAUAGU [5'P-RNA (5'U) 21-nt guide]”, the Kd – broadly, the free concentration of one partner at which half of the binding sites on the other are occupied at equilibrium, for simple one-to-one binding – amounted to 64.4 nM.

Sequence “TGAGGTAGTAGGTTGTATAGT [5'P-DNA (5'T) 21-nt guide]” had a Kd of 24.6 nM.

The data set is the same for the next values; noted with them: FP: 20 mM Tris-HCl pH 7.5, 250 mM NaCl, 5 mM MgCl2, 5 nM oligo, 37 C, 30 min; EMSA: 20 mM Tris-HCl pH 8.0, 150 mM NaCl, 2 mM DTT, 5 mM MgCl2, 1 uM oligo, 1-3 uM.
For “GGAGGUAGUAGGUUGUAUAGU [5'OH-RNA (5'G) 21-nt guide]”, the dissociation constant (Kd) stood at 86.7 nM.

In the case of “UGAGGUAGUAGGUUGUAUAGU [5'OH-RNA (5'U) 21-nt guide]”, the Kd worked out at 86.5 nM.

Regarding “AGAGGUAGUAGGUUGUAUAGU [5'OH-RNA (5'A) 21-nt guide]”, the Kd is 88.4 nM.

“TGAGGTAGTAGGTTGTATAGT [5'OH-DNA (5'T) 21-nt guide]” returned an equilibrium dissociation constant (Kd) of 19.7 nM.

Take “CGAGGUAGUAGGUUGUAUAGU [5'OH-RNA (5'C) 21-nt guide]”: the Kd was 152 nM.
